Reference: patent WO2016038310A1
Several values for one entry are separate records, joined by “and”; a condition that tells them apart may be missing. Equal entries are not always repeated.

Tests used:
[1] = molecular target: les eCG et hCG (equine and human chorionic gonadotropins); assay: ELISA saturation binding, Kd estimated with GraphPad Prism
[2] = molecular target: les FSH ovine et humaine (ovine and human FSH); assay: as above

B1: scFv A8 (scFv)
scFv: QVQLQQSGGGLVQPGGSRKLSCAASGFTFSDFGTHWIRQAPEKGLEWVAYISSGSSTRYYADTVKGRFTISRDDPKNTLFLQMTSLRSEDTAMYYCARSYDGYHVPSFAYWGQGTLVTVSAGGGGSGGGGSGGGGSDIQMTQTPLSLSVSLGDQASISCRSSQNIVHSNGNTYLEWYLQKPGQSPKLLIYRVSNRFSGIPDRFSGSSSGTDFTLKISRVEAEDLGVYYCFQGSHVPLTFGAGTKLELKHHHHHH
[1]
  Kd: 5.78 µM and 22.2 µM
[2]
  Kd: 3.12 µM and 4.62 µM
